According to publication doi:10.1101/2025.04.07.647567 (bioRxiv, 2025):

Experiments:
[1] = biological target: recombinant human AXL, biotinylated (human) (UniProt P30530); assay: SPR
AXL in mouse lung tissue = biological target: T1, AXL in mouse lung tissue (mouse (endogenous in mouse lung tissue), UniProt Q00993 19-888); assay: FRET or BRET
T1 sequence: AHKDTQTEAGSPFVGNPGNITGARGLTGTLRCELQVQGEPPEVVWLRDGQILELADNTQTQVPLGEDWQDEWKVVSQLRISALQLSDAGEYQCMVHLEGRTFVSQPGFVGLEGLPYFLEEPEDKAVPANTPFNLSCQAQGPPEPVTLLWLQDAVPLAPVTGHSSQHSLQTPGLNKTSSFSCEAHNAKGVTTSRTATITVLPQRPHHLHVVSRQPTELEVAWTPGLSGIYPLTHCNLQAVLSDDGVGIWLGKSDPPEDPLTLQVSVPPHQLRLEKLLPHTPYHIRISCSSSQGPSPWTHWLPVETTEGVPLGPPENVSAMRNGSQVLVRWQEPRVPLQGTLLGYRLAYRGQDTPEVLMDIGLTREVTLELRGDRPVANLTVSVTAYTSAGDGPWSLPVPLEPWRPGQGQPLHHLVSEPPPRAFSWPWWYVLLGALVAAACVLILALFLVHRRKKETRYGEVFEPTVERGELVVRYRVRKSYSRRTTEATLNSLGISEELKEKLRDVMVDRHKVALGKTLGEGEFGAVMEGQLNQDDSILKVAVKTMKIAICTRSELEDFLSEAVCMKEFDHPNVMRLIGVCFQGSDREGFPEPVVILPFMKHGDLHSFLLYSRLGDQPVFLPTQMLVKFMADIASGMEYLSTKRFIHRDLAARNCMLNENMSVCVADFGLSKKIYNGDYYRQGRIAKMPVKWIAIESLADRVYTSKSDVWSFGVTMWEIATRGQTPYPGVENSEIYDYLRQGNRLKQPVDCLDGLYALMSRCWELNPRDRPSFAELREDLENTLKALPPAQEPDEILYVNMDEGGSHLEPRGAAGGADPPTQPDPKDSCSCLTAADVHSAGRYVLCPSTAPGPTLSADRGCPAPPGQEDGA

recombinant human AXL, biotinylated (human), sequence (P30530 26-894): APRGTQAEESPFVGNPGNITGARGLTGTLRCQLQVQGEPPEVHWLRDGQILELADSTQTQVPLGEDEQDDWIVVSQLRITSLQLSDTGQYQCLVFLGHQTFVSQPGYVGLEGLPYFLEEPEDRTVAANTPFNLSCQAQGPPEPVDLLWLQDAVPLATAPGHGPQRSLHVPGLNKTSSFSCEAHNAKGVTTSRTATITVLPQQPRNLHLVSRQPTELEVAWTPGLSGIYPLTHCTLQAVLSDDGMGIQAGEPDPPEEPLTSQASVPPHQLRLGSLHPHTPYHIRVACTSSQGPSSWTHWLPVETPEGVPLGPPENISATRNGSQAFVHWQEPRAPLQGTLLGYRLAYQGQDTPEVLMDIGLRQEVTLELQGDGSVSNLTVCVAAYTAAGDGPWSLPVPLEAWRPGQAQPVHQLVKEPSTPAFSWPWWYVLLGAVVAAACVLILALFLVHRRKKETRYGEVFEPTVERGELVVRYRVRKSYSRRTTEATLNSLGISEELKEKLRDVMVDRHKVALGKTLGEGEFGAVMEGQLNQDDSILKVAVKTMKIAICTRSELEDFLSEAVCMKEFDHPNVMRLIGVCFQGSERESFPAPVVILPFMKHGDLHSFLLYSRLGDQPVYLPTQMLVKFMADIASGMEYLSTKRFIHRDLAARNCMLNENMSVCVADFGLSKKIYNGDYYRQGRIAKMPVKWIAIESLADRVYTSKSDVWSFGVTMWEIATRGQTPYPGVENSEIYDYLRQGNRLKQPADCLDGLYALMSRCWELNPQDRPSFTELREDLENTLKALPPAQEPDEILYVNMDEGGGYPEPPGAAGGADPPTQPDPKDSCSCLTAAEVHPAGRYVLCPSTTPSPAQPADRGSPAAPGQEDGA
recombinant human GAS6, sequence (Q14393 31-678): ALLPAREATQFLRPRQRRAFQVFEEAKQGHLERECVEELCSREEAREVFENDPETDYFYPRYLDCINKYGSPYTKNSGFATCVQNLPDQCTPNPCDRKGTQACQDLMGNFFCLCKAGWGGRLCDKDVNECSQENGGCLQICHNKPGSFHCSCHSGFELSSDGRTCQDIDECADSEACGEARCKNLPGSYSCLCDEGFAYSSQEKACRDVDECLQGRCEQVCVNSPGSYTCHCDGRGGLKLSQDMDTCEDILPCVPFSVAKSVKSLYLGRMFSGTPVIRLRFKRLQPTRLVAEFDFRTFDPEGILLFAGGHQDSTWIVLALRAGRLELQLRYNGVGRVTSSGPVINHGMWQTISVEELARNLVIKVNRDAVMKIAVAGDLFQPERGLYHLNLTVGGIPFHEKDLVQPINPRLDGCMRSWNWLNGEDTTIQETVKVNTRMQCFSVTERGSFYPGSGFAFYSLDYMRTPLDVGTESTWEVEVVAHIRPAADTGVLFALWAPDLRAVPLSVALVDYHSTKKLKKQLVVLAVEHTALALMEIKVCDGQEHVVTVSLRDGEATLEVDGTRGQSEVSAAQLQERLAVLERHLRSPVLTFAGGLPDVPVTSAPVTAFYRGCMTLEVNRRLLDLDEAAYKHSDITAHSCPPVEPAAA

Row | Molecule | Kd [1] | FRET efficiency (%Ef) of one coincident region (AXL in mouse lung tissue)
1 | recombinant human GAS6 (from UniProt Q14393 31-678) (ligand) | 0.11 nM | –
2 | recombinant human PROS1 (from UniProt P07225 42-676) (ligand) | 52.1 nM | –
3 | GAS6 in mouse lung tissue (ligand) VLLRAREAAQFLRPRQRRAYQVFEEAKQGHLERECVEEVCSKEEAREVFENDPETEYFYPRYQECMRKYGRPEEKNPDFAKCVQNLPDQCTPNPCDKKGTHICQDLMGNFFCVCTDGWGGRLCDKDVNECVQKNGGCSQVCHNKPGSFQCACHSGFSLASDGQTCQDIDECTDSDTCGDARCKNLPGSYSCLCDEGYTYSSKEKTCQDVDECQQDRCEQTCVNSPGSYTCHCDGRGGLKLSPDMDTCEDILPCVPFSMAKSVKSLYLGRMFSGTPVIRLRFKRLQPTRLLAEFDFRTFDPEGVLFFAGGRSDSTWIVLGLRAGRLELQLRYNGVGRITSSGPTINHGMWQTISVEELERNLVIKVNKDAVMKIAVAGELFQLERGLYHLNLTVGGIPFKESELVQPINPRLDGCMRSWNWLNGEDSAIQETVKANTKMQCFSVTERGSFFPGNGFATYRLNYTRTSLDVGTETTWEVKVVARIRPATDTGVLLALVGDDDVVPISVALVDYHSTKKLKKQLVVLAVEDVALALMEIKVCDSQEHTVTVSLREGEATLEVDGTKGQSEVSTAQLQERLDTLKTHLQGSVHTYVGGLPEVSVISAPVTAFYRGCMTLEVNGKILDLDTASYKHSDITSHSCPPVEHATP | – | 6.96%
